Measured values from patent publication US20140308685A1 (SHINO TEST, published 2014).

How the values were obtained:
[1] = biological target: T1, periostin (S2 recombinant periostin protein tagged with V5/His) (Homo sapiens (Human), UniProt Q15063 22-836, limits assumed); test: ELISA on immobilized antigen (5 ug/mL), A405; bound if difference to control well is 0.2 or more
T1 construct: also called osteoblastic specific factor 2; OSF2
T1 sequence: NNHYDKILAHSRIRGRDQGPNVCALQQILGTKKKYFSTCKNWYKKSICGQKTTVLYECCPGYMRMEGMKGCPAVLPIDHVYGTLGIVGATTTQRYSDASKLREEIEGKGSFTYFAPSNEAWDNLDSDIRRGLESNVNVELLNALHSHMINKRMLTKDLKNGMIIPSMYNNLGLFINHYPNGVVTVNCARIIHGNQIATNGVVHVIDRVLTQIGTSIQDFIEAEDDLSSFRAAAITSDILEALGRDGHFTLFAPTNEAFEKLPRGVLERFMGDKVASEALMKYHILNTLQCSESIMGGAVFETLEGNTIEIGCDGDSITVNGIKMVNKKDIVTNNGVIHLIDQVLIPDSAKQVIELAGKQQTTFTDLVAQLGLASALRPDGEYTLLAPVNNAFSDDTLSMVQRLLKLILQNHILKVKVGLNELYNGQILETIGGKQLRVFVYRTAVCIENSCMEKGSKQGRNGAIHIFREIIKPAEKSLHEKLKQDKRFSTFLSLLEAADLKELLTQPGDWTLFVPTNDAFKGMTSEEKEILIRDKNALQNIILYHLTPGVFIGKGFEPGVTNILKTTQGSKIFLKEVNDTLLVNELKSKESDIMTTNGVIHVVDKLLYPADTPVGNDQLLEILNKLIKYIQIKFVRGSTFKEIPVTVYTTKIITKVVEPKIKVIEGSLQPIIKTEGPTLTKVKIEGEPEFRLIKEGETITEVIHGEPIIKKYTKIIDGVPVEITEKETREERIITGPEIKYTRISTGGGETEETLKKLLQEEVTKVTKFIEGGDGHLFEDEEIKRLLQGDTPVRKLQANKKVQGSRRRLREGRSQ
Procedure: (8) Subsequently, the absorbance in each well of the microtiter plate in (7) at 405 nm was measured with a spectrophotometer.
Based on the measurement results of the absorbance, if the difference between the obtained measured values of absorbance in the well immobilizing periostin or a partial-length periostin and the measured values of absorbance in the control well (into which phosphate-buffered saline was poured instead of periostin or partial-length periostins) is 0.2 or more, an anti-periostin monoclonal antibody was determined to have bound to the periostin or the partial-length periostin immobilized to the well of the microtiter plate.

[2] = biological target: T2, partial-length periostin (R1/R2 regions) (Homo sapiens (Human), UniProt Q15063 111-378, limits assumed); test: ELISA on immobilized antigen, POD-labeled anti-mouse IgG, A405
T2 sequence: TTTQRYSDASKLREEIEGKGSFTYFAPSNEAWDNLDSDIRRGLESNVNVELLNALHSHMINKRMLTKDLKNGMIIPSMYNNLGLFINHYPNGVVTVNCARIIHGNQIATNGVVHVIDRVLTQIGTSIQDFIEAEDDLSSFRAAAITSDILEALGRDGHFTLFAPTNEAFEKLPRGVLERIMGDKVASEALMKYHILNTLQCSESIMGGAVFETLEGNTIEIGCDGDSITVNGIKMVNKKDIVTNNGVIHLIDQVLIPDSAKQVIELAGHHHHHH

[3] = biological target: T3, partial-length periostin (EMI region) (Homo sapiens (Human), UniProt Q15063 22-110, limits assumed); test: as above
T3 sequence: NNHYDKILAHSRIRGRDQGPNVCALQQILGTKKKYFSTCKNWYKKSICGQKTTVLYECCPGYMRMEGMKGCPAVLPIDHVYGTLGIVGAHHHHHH

[4] = biological target: T4, partial-length periostin (C-terminal region) (Homo sapiens (Human), UniProt Q15063 632-836, limits assumed); test: as above
T4 sequence: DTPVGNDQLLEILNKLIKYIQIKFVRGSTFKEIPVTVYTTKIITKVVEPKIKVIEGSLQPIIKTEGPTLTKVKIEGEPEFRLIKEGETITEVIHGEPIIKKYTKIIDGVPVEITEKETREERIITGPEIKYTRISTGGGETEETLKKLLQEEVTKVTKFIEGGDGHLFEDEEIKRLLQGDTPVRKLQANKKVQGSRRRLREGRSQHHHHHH

[5] = biological target: T5, partial-length periostin (R2 region) (Homo sapiens (Human), UniProt Q15063 235-378, limits assumed); test: as above
T5 sequence: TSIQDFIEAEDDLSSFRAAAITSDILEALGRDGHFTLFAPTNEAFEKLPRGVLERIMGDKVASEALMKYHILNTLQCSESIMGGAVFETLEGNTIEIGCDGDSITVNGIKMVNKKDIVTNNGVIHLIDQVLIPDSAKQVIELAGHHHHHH

[6] = biological target: T6, partial-length periostin (R4 region) (Homo sapiens (Human), UniProt Q15063 496-631, limits assumed); test: as above
T6 sequence: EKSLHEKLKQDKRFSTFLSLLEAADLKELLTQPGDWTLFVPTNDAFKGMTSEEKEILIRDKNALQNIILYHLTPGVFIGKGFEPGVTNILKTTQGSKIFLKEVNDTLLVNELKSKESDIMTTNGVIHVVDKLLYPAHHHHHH

B1: anti-periostin monoclonal antibody (SS19D) (antibody, V domains shown)
VH: QVQLQQPGSELVKPGASVKLSCKASGYTFTSYWMHWVKQSPGQGLEWIGEINPSNGRTNYNEKFKTKATLTVDKSSSTAYMQLNSLTSEDSAVYYCVRGDEGFAYWGQGTLVTVSA
VL: NIVLTQSPASLAVSLGQRATISCSASESVDSYGRSFIHWFQQKPGQPPKLLIYLASYLESGVPARFSGSGSRTDFTLTIDPVEADDAATYYCHQNNEDPPTFGGGAKLEIKR
Does B1 bind [1]?
Result: binds

Does B1 bind [2]?
Result: no binding

Does B1 bind [3]?
Result: no binding

Does B1 bind [4]?
Result: no binding

Does B1 bind [5]?
Result: no binding

Does B1 bind [6]?
Result: no binding
